According to US20250381223A1 (UTC THERAPEUTICS SHANGHAI, published 2025):

Assays:
[1] = target: T1, Meso-biotin; assay: flow cytometry, T cells with diabody mRNA only, Meso-biotin + PE-Streptavidin; E1 0.29
T1 construct: Meso-Fc and PE-anti-Fc for this staining

[2] = target: T2, CD40-Fc ( for this staining reagent …, UniProt P25942); assay: flow cytometry, T cells with 10 µg diabody mRNA only, CD40-Fc + PE-anti-Fc; E1 (no mRNA) 0.48
T2 construct: soluble Fc fusion; Staining reagent, detected with PE-anti-Fc

[3] = target: T2, CD40-Fc; assay: flow cytometry, T cells with diabody mRNA and M12 CAR mRNA, CD40-Fc + PE-anti-Fc; E1 0.48, E2 (M12 only) 0.77
[4] = target: T3, recombinant human CD40-His antigen protein (human, UniProt P25942 21-193); assay: ELISA; plate coated with CD40-His 2 µg/mL; HRP-anti-hFc
T3 construct: Bought protein; also called recombinant CD40-His protein; CD40 antigen; not shown: His tag
Experimental: The binding activities of the affinity-matured antibodies for antigen CD40 were detected by ELISA. The experimental procedures were as follows: [0637] 1. 50 μL of recombinant CD40-His protein at a concentration of 2 μg/mL was added to each well of an ELISA plate, and the plate was incubated at 4° C. overnight. […] 2. The next day, the ELISA plate was washed 3 times with PBST (containing 0.05% Tween-20). [0639] 3. 250 μL of 5% skim milk powder (dissolved in PBS) was added to each well of the ELISA plate, and the plate was incubated at room temperature for 2 h. [0640] 4. The plate was washed 3 times with PBST, antibodies with different dilution ratios were added to the ELISA plate at 50 μL/well, and the plate was incubated at room temperature for 60 min. [0641] 5. The plate was washed 3 times with PBST, 50 μL of HRP-anti-hFc antibody was added to each well, and the plate was incubated at room temperature for 60 min. [0642] 6. The plate was washed 3 times with PBST, 50 μL of TMB was added to each well, and after color development at room temperature, 50 μL of 2 M HCl was added to each well to stop the reaction. The plate was read at 450 nm.

Row | Binder | percent of cells in the gate [1] [%] | percent of cells in the gate [2] [%] | percent of cells in the gate [3] [%] | EC50 [4] [µg/mL]
1 | 4.6 (bispecific antibody, Expressed from mRNA in T cells; A signal peptide is not described; also called parent diabody 4.6) single chain, scFv-G4S-scFv: QVQLVQSGAEVKKPGSSVKVSCKASGGTFSSYAISWVRQAPGQGLEWMGMINPSGGTTSYAQKFQGRVTMTRDTSTSTVYMELSSLRPEDTAVYYCARGFRMDQWGQGTLVTVSSGGGGSGGGGSGGGGSQSALTQPPSASGSPGQSVTISCTGTSSDVGAYNFVSWYQQHPGNAPKLIIYDVRKRPSGIPDRFSASKSGNTASLTVSGLQADDEADYYCSSYAGNNNLVFGGGTKLTVLGGGGSQVKLQESGPGLVKPSETLSITCTVSGFSLSDYGVHWVRQSPGKGLEWLGVIWAGGGTNYNSALMSRKTISKDNSKSQVFLKMSSLTAADTAVYYCARDKGYSYYYSMDYWGQGTTVTVSSGGGGSGGGGSGGGGSDIQLTQSPSSLSVSVGDRVTISCRASESVEYYVTSLMQWYQQKPGQAPKLLIFAASNVESGVPSRFSGSGSGTNFTLTISSVQEEDFAMYFCQQSRKVPYTFGGGTKLEIK | 0.72 | 81.6 | 83.9 | –
2 | 5.12 (bispecific antibody) single chain, scFv-G4S-scFv: QVQLVQSGAEVKKPGSSVKVSCKASGGTFSSYAVSWVRQAPGQGLEWMGMINPSGGTTSYAQKFQGRVTMTRDTSTSTVYMELSSLRPEDTAVYYCARGFRMDQWGQGTLVTVSSGGGGSGGGGSGGGGSQSALTQPPSASGSPGQSVTISCTGTSSDVGAYNFVSWYQQHPGNAPKLIIYDVRKRPRGIPDRFSASKSGNTASLTVSGLQADDEADYYCSSYAGNNNLVFGGGTKLTVLGGGGSQVKLQESGPGLVKPSETLSITCTVSGFSLSDYGVHWVRQSPGKGLEWLGVIWAGGGTNYNSALMSRKTISKDNSKSQVFLKMSSLTAADTAVYYCARDKGYSYYYSMDYWGQGTTVTVSSGGGGSGGGGSGGGGSDIQLTQSPSSLSVSVGDRVTISCRASESVEYYVTSLMQWYQQKPGQAPKLLIFAASNVESGVPSRFSGSGSGTNFTLTISSVQEEDFAMYFCQQSRKVPYTFGGGTKLEIK | 1.11 | 93.6 | 87.9 | –
3 | 5.17 (bispecific antibody, how the two are joined there is not described; also called diabody part of M12-5.17 and 5.17-M12) single chain, scFv-G4S-scFv: QVQLVQSGAEVKKPGSSVKVSCKASGGTFSSYAISWVRQAPGQGLEWMGMINPSGGTTSYAQKFQGRVTMTRDTSTSTVYMELSSLRPEDTAVYYCARGFRMDQWGQGTLVTVSSGGGGSGGGGSGGGGSQSALTQPPSASGSPGQSVTISCTGTSSDVGAYNFVSWYQQHPGNAPKLIIYDVRKRPSGIPDRFSASKSGNTASLTVSGLQADDEADYYCSSYAGNNEMVFGGGTKLTVLGGGGSQVKLQESGPGLVKPSETLSITCTVSGFSLSDYGVHWVRQSPGKGLEWLGVIWAGGGTNYNSALMSRKTISKDNSKSQVFLKMSSLTAADTAVYYCARDKGYSYYYSMDYWGQGTTVTVSSGGGGSGGGGSGGGGSDIQLTQSPSSLSVSVGDRVTISCRASESVEYYVTSLMQWYQQKPGQAPKLLIFAASNVESGVPSRFSGSGSGTNFTLTISSVQEEDFAMYFCQQSRKVPYTFGGGTKLEIK | 1.12 | 82.1 | 88.1 | –
4 | 5.25 (bispecific antibody) single chain, scFv-G4S-scFv: QVQLVQSGAEVKKPGSSVKVSCKASGGTFSSYAISWVRQAPGQGLEWMGMINPSGGTTSYAQKFQGRVTMTRDTSTSTVYMELSSLRPEDTAVYYCARGFRMDQWGQGTLVTVSSGGGGSGGGGSGGGGSQSALTQPPSASGSPGQSVTISCTGTSSDVGAYNFVSWYQQHPGNAPKLIIYDVRKRPSGIPDRFSASKSGNTASLTVSGLQADDEADYYCSSYAGNNRLVFGGGTKLTVLGGGGSQVKLQESGPGLVKPSETLSITCTVSGFSLSDYGVHWVRQSPGKGLEWLGVIWAGGGTNYNSALMSRKTISKDNSKSQVFLKMSSLTAADTAVYYCARDKGYSYYYSMDYWGQGTTVTVSSGGGGSGGGGSGGGGSDIQLTQSPSSLSVSVGDRVTISCRASESVEYYVTSLMQWYQQKPGQAPKLLIFAASNVESGVPSRFSGSGSGTNFTLTISSVQEEDFAMYFCQQSRKVPYTFGGGTKLEIK | 2.36 | 92.7 | 92.9 | –
5 | 5.28 (bispecific antibody) single chain, scFv-G4S-scFv: QVQLVQSGAEVKKPGSSVKVSCKASGGTFSSYAISWVRQAPGQGLEWMGMINPSGGTTSYAQKFQGRVTMTRDTSTSTVYMELSSLRPEDTAVYYCARGFRMDQWGQGTLVTVSSGGGGSGGGGSGGGGSQSALTQPPSASGSPGQSVTISCTGTSSDVGAYNFVSWYQQHPGNAPKLIIYDTRKRPSGIPDRFSASKSGNTASLTVSGLQADDEADYYCSSYAGNNNLVFGGGTKLTVLGGGGSQVKLQESGPGLVKPSETLSITCTVSGFSLSDYGVHWVRQSPGKGLEWLGVIWAGGGTNYNSALMSRKTISKDNSKSQVFLKMSSLTAADTAVYYCARDKGYSYYYSMDYWGQGTTVTVSSGGGGSGGGGSGGGGSDIQLTQSPSSLSVSVGDRVTISCRASESVEYYVTSLMQWYQQKPGQAPKLLIFAASNVESGVPSRFSGSGSGTNFTLTISSVQEEDFAMYFCQQSRKVPYTFGGGTKLEIK | 0.94 | 85.8 | 87.4 | –
6 | 5.36 (bispecific antibody) single chain, scFv-G4S-scFv: QVQLVQSGAQVKKPGSSVKVSCKASGGTFSSYAISWVRQAPGQGLEWMGMINPSGGTTSYAQKFQGRVTMTRDTSTSTVYMELSSLRPEDTAVYYCARGFRMDQWGQGTLVTVSSGGGGSGGGGSGGGGSQSALTQPPSASGSPGQSVTISCTGTSSDVGAYNFVSWYQQHPGNAPKLIIYDVRKRPIGIPDRFSASKSGNTASLTVSGLQADDEADYYCSSYAGNNNLVFGGGTKLTVLGGGGSQVKLQESGPGLVKPSETLSITCTVSGFSLSDYGVHWVRQSPGKGLEWLGVIWAGGGTNYNSALMSRKTISKDNSKSQVFLKMSSLTAADTAVYYCARDKGYSYYYSMDYWGQGTTVTVSSGGGGSGGGGSGGGGSDIQLTQSPSSLSVSVGDRVTISCRASESVEYYVTSLMQWYQQKPGQAPKLLIFAASNVESGVPSRFSGSGSGTNFTLTISSVQEEDFAMYFCQQSRKVPYTFGGGTKLEIK | 1.14 | 88 | 94.2 | –
7 | 4052.12 (antibody, V domains shown) VH: QVQLVQSGAEVKKPGSSVKVSCKASGGTFSSYAVSWVRQAPGQGLEWMGMINPSGGTTSYAQKFQGRVTMTRDTSTSTVYMELSSLRPEDTAVYYCARGFRMDQWGQGTLVTVSS VL: QSALTQPPSASGSPGQSVTISCTGTSSDVGAYNFVSWYQQHPGNAPKLIIYDVRKRPRGIPDRFSASKSGNTASLTVSGLQADDEADYYCSSYAGNNNLVFGGGTKLTVL | – | – | – | 0.124
8 | 4052.25 (antibody, V domains shown) VH: QVQLVQSGAEVKKPGSSVKVSCKASGGTFSSYAISWVRQAPGQGLEWMGMINPSGGTTSYAQKFQGRVTMTRDTSTSTVYMELSSLRPEDTAVYYCARGFRMDQWGQGTLVTVSS VL: QSALTQPPSASGSPGQSVTISCTGTSSDVGAYNFVSWYQQHPGNAPKLIIYDVRKRPSGIPDRFSASKSGNTASLTVSGLQADDEADYYCSSYAGNNRLVFGGGTKLTVL | – | – | – | 0.111
9 | 4052.28 (antibody, V domains shown) VH: QVQLVQSGAEVKKPGSSVKVSCKASGGTFSSYAISWVRQAPGQGLEWMGMINPSGGTTSYAQKFQGRVTMTRDTSTSTVYMELSSLRPEDTAVYYCARGFRMDQWGQGTLVTVSS VL: QSALTQPPSASGSPGQSVTISCTGTSSDVGAYNFVSWYQQHPGNAPKLIIYDTRKRPSGIPDRFSASKSGNTASLTVSGLQADDEADYYCSSYAGNNNLVFGGGTKLTVL | – | – | – | 0.116
10 | 4052.36 (antibody, V domains shown) VH: QVQLVQSGAQVKKPGSSVKVSCKASGGTFSSYAISWVRQAPGQGLEWMGMINPSGGTTSYAQKFQGRVTMTRDTSTSTVYMELSSLRPEDTAVYYCARGFRMDQWGQGTLVTVSS VL: QSALTQPPSASGSPGQSVTISCTGTSSDVGAYNFVSWYQQHPGNAPKLIIYDVRKRPIGIPDRFSASKSGNTASLTVSGLQADDEADYYCSSYAGNNNLVFGGGTKLTVL | – | – | – | 0.134
